Results from patent publication US20220211858A1, “TUBULAR SUPRAMOLECULAR POLYMERS” (priority 2019, published 2022).
Where two headings read alike, the source gives them in different places.

Tests used:
[1] = Zeta potential measurement; assay type: physicochemical
Experimental: TT solutions of 200 μM in 1×-DPBS buffer (pH=7.4) were prepared by directly mixing identical volumes of a 400 μM aqueous TT solution and 2×-DPBS buffer (pH=7.4). In some embodiments, solutions at a concentration of 2 mM in PBS buffer (pH=7.4) were prepared and aged overnight prior to zeta potential measurement. TT solutions of 200 μM in 1×-DPBS buffer (pH=5.0) were prepared by mixing identical volumes of a 400 μM aqueous TT solution and 2×-DPBS buffer (pH=5.0), which was pretreated with 6 M HCl. The zeta potential measurements were performed on a Zetasizer Nano ZS90 (Malvern Instruments Ltd., UK). The prepared solutions were loaded in capillary cells and equilibrated for 2 min prior to measurement. The average values and their standard deviations are calculated from three replicate measurements. The zeta potential of the assembled structures was obtained by measuring the electrophoretic movement of the nanostructures under the applied electric field, where the movement velocity is determined by phase analysis light scattering. Variations of the zeta potential value over time were determined by measuring the solutions at different aging time points (1, 2, 4 and 7 days) and are plotted in FIG. 10.

[2] = Maximum tolerated dose (MTD) dose escalation study; assay type: in vivo, athymic nude mice; details: for Maximum % BW loss: n=3
Experimental: Maximum tolerated dose (MTD) studies. MTD of SAPD 1 has been previously determined in our lab (Table 1). MTDs of other SAPDs were determined by dose escalation studies in healthy female athymic nude mice (Charles River, 12-13 weeks old). A single intravenous (i.v.) injection of SAPD was dosed at day 1 and the body weights of each mouse (n=3) were recorded every day for six days and every the other day until two weeks. The dosing volume was determined based upon a ratio of 200 μL for a 20 g mouse. Doses of SAPDs used in the studied were 108, 72, 54, 45, 36 and 18 mg/kg (CPT equivalent).

[3] = Drug release of SAPDs in rat plasma; assay type: in vitro ADME; details: without GSH, read-out: remaining drugs
Experimental: The drug release in rat plasma (10%, v/v) were performed using similar protocols as those in PBS. To determine the amount of SAPDs and free CPT in each sample, 50 μL of sample was mixed with 200 μL acetonitrile (containing 0.1% TFA) and sonicated for 1 min. The supernatants were collected using centrifugation. All samples were filtered through a 0.22 μm membrane before analysis by a UPLC system (Waters ACQuity™ Ultra Performance LC) equipped with a reverse-phase column (ACQuity UPLC@BEH, C18, 1.7 μm 2.1×150 mm) and a fluorescence detector (ACQuity FLR, Ex/Em=362/430 nm). The column was flushed with a mixture of water (0.1% TFA) and acetonitrile (0.1% TFA) at 0.3 mL/min with the following gradient: 5% acetonitrile (0-1 min), 5-95% acetonitrile (1-5 min), 95% acetonitrile (5-8 min), 95-5% acetonitrile (8-9 min), and 5% acetonitrile (9-10 min). Peaks of SAPDs and free CPT were monitored and recorded, and the concentrations were calculated by comparing with standard curves.

[4] = test system: HT-29 cells
From the text: Antitumor efficacy study of SAPDs at the same dose on a HT-29 tumor model. […] When the averaged tumor size reached 75-95 mm^3, mice were randomly divided into six groups. […] The tumor volumes and body weights were monitored and recorded every two or three days. The tumor volume was estimated by measuring the length and width with calipers and using the equation “tumor volume=(length×width^2)/2”. Mice were euthanized once the tumor volume reached 1000 mm^3.

[5] = Circulation studies of SAPDs in rats; assay type: in vivo, Sprague Dawley (SD) rats; details: 10 mg/kg i.v.; for CPT remained in the bounded form: 5 min
Experimental: Circulation studies of SAPDs in rats. Female Sprague Dawley (SD) Rats (200-250 g) were randomly grouped into four groups with three rats in each group. SAPDs were all intravenously (i.v.) dosed at 10 mg/kg (CPT equivalent). The dosing volumes of SAPDs were estimated by a ratio of 1 mL for a 200 g rat. The blood samples were collected at 5 min, 15 min, 30 min, 1 h, 2 h, 4 h, 8 h, and 12 h, which were immediately centrifuged to take plasma for further analysis and stored at −80° C. The plasma proteins were precipitated using similar protocols as mentioned above in drug release section and the determination of SAPDs and free CPT in the plasma by UPLC also used the same conditions.
Estimation of SAPD concentration in plasma upon injection. To calculation the concentration after dilution, we simply set the following parameters: body weight of mice (20 g), dosing volume of mice (200 μL), blood volume of mice (1.8 mL), body weight of rat (200 g), dosing volume of mice (1 mL), blood volume of mice (18 mL) and the dosage for both mice and rats (10 mg/kg).

[6] = test system: HT-29 cells; assay: Antitumor efficacy of SAPDs at near MTD on a HT-29 tumor model; details: for mean tumor volume: day 28, SAPD 1 12 mg/kg, SAPD 2-4 36 mg/kg i.v. days 1, 5, 9, irinotecan 100 mg/kg i.p. days 1, 8, 15
Experimental: Antitumor efficacy study of SAPDs at near MTD on a HT-29 tumor model. HT-29 tumor model was established as described above. When the averaged tumor size reached 70-110 mm^3, mice were randomly divided into six groups (n=5 for each group). Four different SAPDs were all i.v. dosed at near or slightly lower than their estimated MTDs. […] The irinotecan (i.p. injection, 100 mg/kg at days 1, 8 and 15) and the PBS groups were used as controls. All other protocols were similar to those in the above-mentioned efficacy study.

[7] = female, athymic nude, mouse, in vivo, iv, single i.v. injection, CPT equivalent, healthy athymic nude mice
[8] = single i.v. dose 18 mg/kg (CPT equivalent)
[9] = single i.v. dose 36 mg/kg (CPT equivalent)
[10] = single i.v. dose 45 mg/kg (CPT equivalent)
[11] = single i.v. dose 54 mg/kg (CPT equivalent)
[12] = single i.v. dose 72 mg/kg (CPT equivalent)
[13] = SAPDs 10 mg/kg i.v. days 1, 5, 9, 13, irinotecan 100 mg/kg i.p. days 1, 8, 15
[14] = day 25, SAPDs 10 mg/kg (CPT equivalent) i.v. days 1, 5, 9, 13, irinotecan 100 mg/kg i.p. days 1, 8, 15

CC[C@]1(OC(=O)OCCSSC[C@@H](NC(C)=O)C(=O)N[C@@H](CCCCNC(=O)[C@@H](CSSCCOC(=O)O[C@]2(CC)C(=O)OCc3c2cc2n(c3=O)Cc3cc4ccccc4nc3-2)NC(C)=O)C(=O)N[C@@H](CCCCNC(=O)CCOCCOCCOCCOCCOC)C(=O)N[C@@H](CCCCNC(=O)CCOCCOCCOCCOCCOC)C(=O)N[C@@H](CCCCNC(=O)CCOCCOCCOCCOCCOC)C(=O)N[C@@H](CCCCNC(=O)CCOCCOCCOCCOCCOC)C(=O)N[C@@H](CCCCNC(=O)CCOCCOCCOCCOCCOC)C(=O)N[C@@H](CCCCNC(=O)CCOCCOCCOCCOCCOC)C(N)=O)C(=O)OCc2c1cc1n(c2=O)Cc2cc3ccccc3nc2-1 [SAPD 3]
ζ-Potential ([1]; assembled SAPDs in PBS buffer): −6.5 mV | MTD [2, 7]: 72 mg/kg | Survival/Total ([2]; single i.v. dose 18 mg/kg): 3/3 | day of maximum BW loss ([2]; single i.v. dose 18 mg/kg): 4 days | Maximum % BW loss [2, 8]: 5.5% | Survival/Total ([2]; single i.v. dose 36 mg/kg): 3/3 | day of maximum BW loss ([2]; single i.v. dose 36 mg/kg): 4 days | Maximum % BW loss [2, 9]: 1.4% | Survival/Total ([2]; single i.v. dose 45 mg/kg): 3/3 | day of maximum BW loss ([2]; single i.v. dose 45 mg/kg): 4 days | Maximum % BW loss [2, 10]: 2.5% | Survival/Total ([2]; single i.v. dose 54 mg/kg): 3/3 | day of maximum BW loss ([2]; single i.v. dose 54 mg/kg): 1 days | Maximum % BW loss [2, 11]: 1.6% | Survival/Total ([2]; single i.v. dose 72 mg/kg): 3/3 | Maximum % BW loss [2, 12]: 0% | Survival/Total ([2]; single i.v. dose 108 mg/kg): 2/3 | remaining at 96 h ([3]; rat plasma (10%, v/v)): 15% | mean tumor volume ([4]; mouse, in vivo): 304 mm^3 | median survival ([4]; mouse, in vivo): 42 days | total CPT concentration in plasma ([5]; 1 h): 2.8 µM | total CPT concentration in plasma ([5]; 2 h): 1.3 µM | mean tumor volume [6]: 322 mm^3

CC[C@]1(OC(=O)OCCSSC[C@@H](NC(C)=O)C(=O)N[C@@H](CCCCNC(=O)[C@@H](CSSCCOC(=O)O[C@]2(CC)C(=O)OCc3c2cc2n(c3=O)Cc3cc4ccccc4nc3-2)NC(C)=O)C(=O)N[C@@H](CCCCNC(=O)CCOCCOCCOCCOCCOC)C(=O)N[C@@H](CCCCNC(=O)CCOCCOCCOCCOCCOC)C(N)=O)C(=O)OCc2c1cc1n(c2=O)Cc2cc3ccccc3nc2-1 [TT 1]
ζ-Potential ([1]; 1×-DPBS buffer, pH 5.0, 200 μM): −5 mV | ζ-Potential ([1]; 1×-DPBS buffer, pH 7.4, 200 μM): −5 mV | ζ-Potential ([1]; assembled SAPDs in PBS buffer): −6.5 mV | MTD [2, 7]: 24 mg/kg | Survival/Total ([2]; single i.v. dose 4.5 mg/kg): 3/3 | Maximum % BW loss ([2]; single i.v. dose 4.5 mg/kg (CPT equivalent)): 0% | Survival/Total ([2]; single i.v. dose 9 mg/kg): 3/3 | day of maximum BW loss ([2]; single i.v. dose 9 mg/kg): 1 days | Maximum % BW loss ([2]; single i.v. dose 9 mg/kg (CPT equivalent)): 5.1% | Survival/Total ([2]; single i.v. dose 15 mg/kg): 3/3 | day of maximum BW loss ([2]; single i.v. dose 15 mg/kg): 2 days | Maximum % BW loss ([2]; single i.v. dose 15 mg/kg (CPT equivalent)): 5.0% | Survival/Total ([2]; single i.v. dose 18 mg/kg): 3/3 | day of maximum BW loss ([2]; single i.v. dose 18 mg/kg): 1 days | Maximum % BW loss [2, 8]: 6.5% | Survival/Total ([2]; single i.v. dose 24 mg/kg): 3/3 | day of maximum BW loss ([2]; single i.v. dose 24 mg/kg): 3 days | Maximum % BW loss ([2]; single i.v. dose 24 mg/kg (CPT equivalent)): 9.8% | Survival/Total ([2]; single i.v. dose 30 mg/kg): 1/3 | day of maximum BW loss ([2]; single i.v. dose 30 mg/kg): 4 days | Maximum % BW loss ([2]; single i.v. dose 30 mg/kg (CPT equivalent)): 20.6% | Survival/Total ([2]; single i.v. dose 36 mg/kg): 0/3 | day of maximum BW loss ([2]; single i.v. dose 36 mg/kg): 3 days | Maximum % BW loss [2, 9]: 21.2% | Survival/Total ([2]; single i.v. dose 54 mg/kg): 0/3 | day of maximum BW loss ([2]; single i.v. dose 54 mg/kg): 3 days | Maximum % BW loss [2, 11]: 20% | remaining at 96 h [3]: 89% | toxicity according to body weight change ([4]; 10 mg/kg i.v.): most toxicity | median survival [4, 13]: 56 days | mean tumor volume [4, 14]: 60 mm^3 | CPT remained in the bounded form [5]: 86% | total CPT concentration in plasma ([5]; 1 h): 15.3 µM | total CPT retained in the conjugate form ([5]; 1 h): more than 72% | total CPT concentration in plasma ([5]; 2 h): 8.1 µM | mean tumor volume [6]: 172 mm^3

CC[C@]1(OC(=O)OCCSSC[C@@H](NC(C)=O)C(=O)N[C@@H](CCCCNC(=O)[C@@H](CSSCCOC(=O)O[C@]2(CC)C(=O)OCc3c2cc2n(c3=O)Cc3cc4ccccc4nc3-2)NC(C)=O)C(=O)N[C@@H](CCCCNC(=O)CCOCCOCCOCCOCCOC)C(=O)N[C@@H](CCCCNC(=O)CCOCCOCCOCCOCCOC)C(=O)N[C@@H](CCCCNC(=O)CCOCCOCCOCCOCCOC)C(=O)N[C@@H](CCCCNC(=O)CCOCCOCCOCCOCCOC)C(N)=O)C(=O)OCc2c1cc1n(c2=O)Cc2cc3ccccc3nc2-1 [SAPD 2]
ζ-Potential ([1]; assembled SAPDs in PBS buffer): −7.4 mV | MTD at 2 weeks [2, 7]: 54 mg/kg | Survival/Total ([2]; single i.v. dose 18 mg/kg): 3/3 | day of maximum BW loss ([2]; single i.v. dose 18 mg/kg): 5 days | Maximum % BW loss [2, 8]: 6.2% | Survival/Total ([2]; single i.v. dose 36 mg/kg): 3/3 | day of maximum BW loss ([2]; single i.v. dose 36 mg/kg): 6 days | Maximum % BW loss [2, 9]: 2.1% | Survival/Total ([2]; single i.v. dose 45 mg/kg): 3/3 | day of maximum BW loss ([2]; single i.v. dose 45 mg/kg): 2 days | Maximum % BW loss [2, 10]: 4.0% | Survival/Total ([2]; single i.v. dose 54 mg/kg): 3/3 | day of maximum BW loss ([2]; single i.v. dose 54 mg/kg): 2 days | Maximum % BW loss [2, 11]: 3.5% | Survival/Total ([2]; single i.v. dose 72 mg/kg): 2/3 | day of maximum BW loss ([2]; single i.v. dose 72 mg/kg): 2 days | Maximum % BW loss [2, 12]: 11.4% | Survival/Total ([2]; single i.v. dose 108 mg/kg): 0/3 | remaining at 96 h ([3]; rat plasma (10%, v/v)): 78% | median survival [4, 13]: 46 days | mean tumor volume [4, 14]: 255 mm^3 | CPT remained in the bounded form [5]: 28% | total CPT concentration in plasma ([5]; 1 h): 7.0 µM | total CPT concentration in plasma ([5]; 2 h): 2.2 µM | treatment related death ([6]; 36 mg/kg i.v. days 1, 5, 9, n=5): one treatement related death | mean tumor volume [6]: 330 mm^3
